This data set is described as follows: label from the status in PepcDB records.
For the sequence “MYKCLIISILTWFSCIVSVYAQAIPKEARNYLEEGKIYYDGANYLKALDSYLGAYKFVPNDPGVNYSIALCYIQTYSYDKALTYLIPAKKAGIKDPLLDYYMGLAYHANSNIDEALKSLTAFQSTLRSSDKELTAQTAKYITYCNNAKTLMLTPVKMTITNLGASVNSAYPDYNPAISVDESTIIYTSRRPNSTGGLISEMDGHYFEDIYMSNKQTNNSWGTSIQIDQTINTTSHDACVGLSSEGQTMIVYKDDGGGDLYYSNLSGQNWSKPISFGKAINTDGWEACGNFSPDGNYLFFVSNKKGGFGGTDIYYAVKNAAGVWGAPVNMGPEINTKEDEFSPYLHADGKTFYFSSQAHTSMGGFDIFQSTIDLSMQPIAVKSKPENLGYPINTVGDEIYFVWSADNKRAYFSSAREGGLGDKDLYLLERPVAKAALVLLKGTISDCKTKEFIQASITVTDIESGKLIGKYVSNSSTGKYIVTLPAGKNYSITVEAKGYLFHSKNINIPKLEEFKEIDDVICLDKIDIGTTIVLNNVFFDVNKSTLRKESETELDKLFDILSKNPKIKIEVAGHTDSDGDTQANLTLSDARAHTVKDYLIGKGISADRIIYVGHGEGKPVVPNDTPENKQLNRRTEIKILEN”, the protein production entry is recorded as “failed”. The value for “MYKLSLVIKSLIIALLTTSLLSAGFQLRGDYLLDDDLQTLYVSSSDIHGELTRLVKLNLTRNQVNVLKHSKADVPELRILSDKLDRRTLSLFSNGQVAEYELIYSVHYQVRFTGEDARDFRFELYRDYQDDPNIALAKSRELSLLLSEMRTSAADKILRDLARIQRLEHHHHHH” was “failed”.

As to “MYKSLFTIIILLYSASSYAKSESPPASTITFIAQIDHVELNKTALSHDMKLVLADRFYFKTSNPCETNSISARPESMDITDKAYADKLKKLETPFLDDRYFFMTINQCDGNGTPMLTDIKVCTTELCGAEYTKKMSTVWLDETLKPTAKRLAIYFIQSPLPYDEEKKQWKVTGWYISSTDNQSSTKQIAFEGYTDTDNLSDSKFISSFKSWFESGKIKNIANYNPKGERDGKYESYYNSNGNVYESLSFSNGLINGEFITYYENGAIESKRHFNNDKIKDGECPHFYEDGKIKQQHSYLNSKLDGPAYEYYPDGKLMQENFYQQSVLIGNDTSYYQSGKISSIHNRNSRGQYDGANERYSEEGKLLSKSVYKDGKQISVQTWYENGQKEEEKHFDEQGQLNGLVKQWYKNGNLAKSQNYKHDILDGNSEEWYENGIPESLYPYKNGKTDGIAKSWNKYGKLTYSIEYKNGVENGAYRNWSKNTGKLTKETLYVNGIRQGVEKEFNDRTGKLLTSTQYVNNKRHGTEETYDQNGIKYITCYQNDQKLSSLDNPTQIKDNATTGDSSAQFALGKYEFICANIDEGIKWLTKSAEQKNTDAIYFLATAYKGNGIPANNEKYLAYLQQAATLGSSNAQAEIGYLYLIGKELPQNLPDAGVWFKKAAAQGNFAAHFYLGRMYQNGDGVERNMEKARFHLSNAAEGGIEPALKALNELEHQTK”, the protein production result is on record as “failed”. The same measure for “MYLAASADTKPLPDSDDEEDQHTNAVSIPIAVHNMASALLQVEQAIGKRFLKEPYGMKKWDPKQEALKLACDSRLHQWEVSLMESTSFAQVFLHLNILHDCIQWRRSTNKSLCKVCRRGSDPEKMLLCDECNAGTHMFCLKPKLRSVPPGNWYCNDCVKSLGLSNG”: “failed”. The same measure for “MYLVCGEALFDVFSLESAARSNELGFTAIAGGSPFNVAVGLRRLGVEAALFGGLSSDYLGARLRRVLEEEGVDCGFLVPSDAPTTLAMVGLDASGSAQYQFRGEGCADRQVRLEHLPTLDGRIRGLHVGSYTLVVTPVADTLLALVRRESGRRLVSLDPNVRLDPQPDIDLWRRRVEAFASHAHLIKASEEDLALLYPGRDPGEVARGWLNPRCRLVFVTHGGAGASVHCTHGSWSRPADTALPLRDTVGAGDTFQAATLAYLRRLDADSPAGLAALSREAIDAMLAFAIRAAAVTCSRVGPDLPFAHEL”: “failed”. The same measure for “MYNAQLGIGILKYVNTMTKYSALLVLFLFSMIANSINAQPFVALDNRNKIELNEHDLWFKTQSLDTNPSFLALSQLHQNANRVTSTFGGSGAYISKIKLTNTKGQKDTWFVNIHAVYLDIGTAYWQPEHGEPIVLESFGHMGSENPKLAHSQAFSLLLNQNESGTLWVYIQAKMFATPVVVELYSKKEFYKKQFITNSISTISFTVMMTLALIAFFIYLRTKYLVTLACTGYIGIQGLGWFTASGSFGHLLTVSAFNPVYSGIIIFPFAIASASQFTKLLFNCPQKHPKLTLTFNLLSIVCFSLGIIMPFIPFTQSFLISHIIATIWIPLCIGTGIFMLAKNDFRAKYYLIGNLVYGFTLAGYILSHLYKIDWNISLEVIVQIALTIDCMCILLSLSEWLQIQQKEFHRSYAISRIDPLTQIGNRFAQNEKLASLKGPYCITFIDLDGFKKINDKLGHEEGDKVLIATANIMQKKLQELGSIYRCGGDEFIWVVDIENVQQTEAIITKLSDLLLQTEKELQHRGWSEAGLSFGIATSFETLNQSECLSLADQRMYKYKQDKKSIKGLAACS”: “failed”; for “MYNILLIFIAFLLVLLNAFFVSAEFGMVKLRATRIQAIKENYGLRGRILEQVHQNLDAYLSACQLGITLASLGLGWIGEPAFAELLGPLFVALGISSVHIVTISSFFIAFFLISFLHIVIGELMPKSIAIRQSELISIWTAVPLYWFYWIMYPAIWLLNTCSNFFLKLSGMDIKNEYEGFYSSEELKLILSGQHLQSELKEDEREILEHTLDLAELNVTEVMRPEDEMIIIDINEPFETIKDKILKYRYSRYPVYDSGTKEMIGVIHVKDLFADLLLQKNINTLKPYVRPVLKVSHKLPAMDLLRKFRAGMPHFALVYKHKSSLLGFVTLDNLLHILIGRIKDEFHKTHEDWVKNSDGTITTKGDCSLYSLERALDCDITLSPDEEELNTLYGLIITRHGKLPNEGEIIQFVEFDALIEKVQDSFITKIKVFPKIKN”: “failed”; for “MYNKTILESQHTLIPMPSTSTNAQPTLAKQLFTMTWPMLFGVLSLMSFQLVDSAFIGQLGVLPLAAQGFTLPLQMVIIGIQVGLGIATTAVISKALGANDARYAKQLGGLVLMIGSIGVAVFGLLIWLLRYPILSLLSAPETVMPIIDSYWPWWLLSSWAGAVLYFYYSICRANGNTMLPGTMMMVTSGVNLVLDPLFIFTLDLGINGAALATLVAFGFGILVVAPRVKRNHWATTQWQDLNVMKSVTSIGNIMGPAMVSQLLPPLSSMLATKLLASFGTAAVAAWALGSRYEFFAIVSVLALTMSMPPMVGRLLGAKNYRDIQSLVGIAVKFILGFQLLIAAITFLLANPLALLMTSDTQVEQVLHMHLMIVPISLGSLGVCMLMVSICNALGKSYTALTISALRLFVFFLPCLWLGAQLDGIRGLLFGACVGNIMAGISAYLTYRKTIHKLAIKQATA”: “failed”. Consider “MYSMLKRVITEKDLLRQIRLLEQLLNVPQLTAKRLAAQIQTTERTVFSDLQYIRSQLPADWSIETDSSGIRLRNQGNAQTNELWSLFLPQSISIQLLKELLFTKELVTTSFLSTSGVSYETLKRHIKKMNQALRDFHLTIQLTTMTIQLIGAESNIRIFYHRLLVPFTHNNYFFDDYSIHEEHYFQFLKQVYSSELTVETEEIFGACWFFINTIRNKANCRVSQFSFDSKDVLFQLYQPSLAKLYASEGIYLQGEESFFAFFCFLESWNYDNVYGETLASALHTHYSQLRKSLQQFVTNLSTEEARPDLIQTNLLDNLLLLFIKYTESPTLSEQFQLEYQELMTEQAAEDLALSKSNQELLEILSRYTTIEEPTYFLSLASLLEKQAIYSIQAQTMTAYFLFQGEPAWKAFLQQELAAYLGTRVKLQAIEYVELSQLTLNEADIIISNFPLDHLDLPVFYLSLIPTKNELRRLAELTLHSYF”, for which the protein production entry is listed as “not failed”. Turning to “MYSSGNPTNIANPIKDASVQIDLKTVGGKLTLYQTTLCERISGDNIDLGLDLGSQSFLPTYNKNDIQLICCQADASVLWLVPDTVVTRFIQSLDWDTDMDITFTWVLNRDRPKGKETVKYERSVDPLDLPKRSDIQMVLNGSMDGFRVHNLYPKFFRVTGSGDVRSFEDQTDEVSADILINHANFKWWWSFHNLKASENISACEGMDGPVAIIMSEETPPPVGRFIRLQCSDLRMRIPYENLPSCDRLIAICEDLYAARAEGELGVEEVLYWTLVKIYRSPHMLLEYTKLDYDA”, the protein production entry is on record as “failed”. In the case of “MYTIYVPGLRDPDLCNHSLMAEILCIYSSNAFEKIRKYDNLFTYVDYGNLKESELYKKRNEEESSFLYKKRILSNNIQDKKLKFDIKKEQFNYGALLFFSLNDGEFLNYISENICGNSVEVLASNNSMTTLVCGDDKGFIRILRNNPKYDDFEIKNTQMIRDVDKECCTKLFNNKIIKIDERRRNSYQTKRKKSIDKQQDLLKKAKMENFSDH”, the protein production result is “failed”. The same measure for “MYTYKLQDEKPICSEKLKRLYDSVGWWPERKEIDIQKMLKNSIAIGVWKENELIGFARVVSDGVFRAYLEDVVVHESVRNKGIGEKMLTMLLEEISHINIVSLFCGEKLIKFYGQQQFQVTK”: “failed”. The value for “MYVREVKDGKVVVAKARTSACGSCPAKNICLSDNEIKLEIDWCGEDLKPGDEVVVDIPEYDPLKVSTLVYFLPLVIFAVTVITGYLFRLKDWVTFVLALGSVFAYYSLFRFRRKDRKPPRILRKVS” was “failed”; that for “NAEKVALAKKVADESAVLLENRNDILPLDLNKYKSVAVVGPNSNQAVLGDYAWTMGDTKEAVSLLQGLQESAGDKIMIRHAEGCDWWSQDKSHIAEAVEVVRNSDIAVVAVGTRSTYLGRSPKYSTAGEGFDLSSLELPGVQEELLKEIKKTGKPMIVVLIAGKPLAMPWVKENADALLVQWYAGEQQGCTLADILLGKVNPSGKLNVSFPRSTGNTPCFYNHFVTDREEPFDQPGTPEEPKGHYIFDKPEPLWNFGHGKSYTTF” was “not failed”; that for “NAEKVALAKKVADESAVLLENRNDILPLDLNKYKSVAVVGPNSNQAVLGDYAWTMGDTKEAVSLLQGLQESAGDKIMIRHAEGCDWWSQDKSHIAEAVEVVRNSDIAVVAVGTRSTYLGRSPKYSTAGEGFDLSSLELPGVQEELLKEIKKTGKPMIVVLIAGKPLAMPWVKENADALLVQWYAGEQQGCTLADILLGKVNPSGKLNVSFPRSTGNTPCFYNHFVTDREEPFDQPGTPEEPKGHYIFDKPEPLWNFGHGKSYTTFDYVD” was “failed”. For the sequence “NDDIIVNWVNRTLSEAGKSTSIQSFKDKTISSSLAVVDLIDAIQPGCINYDLVKSGNLTEDDKHNNAKYAVSMARRIGARVYALPEDLVEVKPKMVMTVFACLMGRGMKRV”, the protein production result is listed as “not failed”. As to “NENNTVVAETKTSTASETSEPKQVISSKQQLASLYLQAKQSLFKQRALSATMYGLSQKDIGQVISSDMEFYSPENEKQLRAELLSISNTIAGIKLDDADITTKNNQQVMAGLTRYFAGEPNFNIGYIDTWMGLSPFIVNQINGPLIDIPRVMQNDQPITTEKEALDYIVRLGQFDKLAATIIEKQTADAAQNWLPSKVTLQGAIKYLKGFTSGSAEQHPFVNVFREKIEKVDSLTTEQKQSLITQVIAKVSQVVYPAYQSVEKASEQLLSEARSESGIWAQPKGSVYYQDAIKQLGDSELSPTQIHQIGLDEVARISGVMNEILLAQGYTKGTVGERMVALNEEPRFLYEDSIAGREELLSDINGYITEVTAKMAPVFRTTPSYQVEVKSFPVEVQDGAPGGQYTSPAVDGSKPGIYWINLRDMKANPKFGLKTLTYHEANPGHHWQIALNLDQAELPFLRRIAPYNAYTEGWALYSEQVAYELGMYENDPFGDLGRLQAELFRAVRLVVDTGLHDKRWTREQAISYMSEQTGTAESDVVAEIERYMAWPGQALGYKLGMLKILSLREQAKARLGDKFDLAEFHDVVLLNGAVPMAVLSRNVNHWLDNK”, the protein production result was “not failed”. The same measure for “NGDQQTMVYIVSAKRKIIADRMLQELDLGVTMLQAVGAYKNNETEVIMCVMRKATLVKVRNLLKEVDPDAFMIVSTANEVFGEGFKNQYETEI”: “not failed”; for “NGMDEEQRQKRRRIEVALIEYRETLEEQGMKNPEEIERKVEINRKRLEVDYGLS”: “not failed”.

These data come from a protein production outcome set (Wang et al. 2014).
